According to the supplement of paper PMC9112550, “Optimization of the antimicrobial peptide Bac7 by deep mutational scanning” (BMC Biology, 2022):

Tested on: Escherichia coli TOP10
Test: shrunken log2 fold change of peptide-encoding DNA abundance (4.5 h post-induction vs induction); higher = less antimicrobial activity (less host growth inhibition)
Conditions: time post-induction: 4.5 h; library: site-saturation at positions 5, 18, 19, 20
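Note: peptides expressed intracellularly from a pBAD plasmid library in pooled LB shake-flask culture, induced with 0.3% L-arabinose, DNA abundance read by NGS, three biological replicates, DESeq2 with apeglm shrinkage.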

Sequence | shrunken log2 fold change
RRIRWRPPRLPRPRPRPHGMPRP | 0.0365
RRIRSRPPRLPRPRPRPNSKPRP | -0.382
RRIRFRPPRLPRPRPRPLIMPRP | -0.352
RRIRRRPPRLPRPRPRPIDKPRP | -0.0465
RRIRYRPPRLPRPRPRPPSFPRP | 0.0588
RRIRFRPPRLPRPRPRPDKTPRP | -0.0318
RRIRNRPPRLPRPRPRPWGEPRP | 0.157
RRIRCRPPRLPRPRPRPMPDPRP | -0.0379
RRIRFRPPRLPRPRPRPLCNPRP | -0.398
RRIRIRPPRLPRPRPRPNMFPRP | -0.394
RRIRSRPPRLPRPRPRPQHFPRP | -0.00646
RRIRFRPPRLPRPRPRPPHFPRP | 0.341
RRIRWRPPRLPRPRPRPRKKPRP | 0.408
RRIRNRPPRLPRPRPRPMNMPRP | -0.356
RRIRIRPPRLPRPRPRPHFEPRP | -0.377
RRIRMRPPRLPRPRPRPHPFPRP | 0.169
RRIRHRPPRLPRPRPRPVKLPRP | -0.438
RRIRTRPPRLPRPRPRPYPVPRP | 0.154
RRIRHRPPRLPRPRPRPSHRPRP | -0.548
RRIRRRPPRLPRPRPRPLRIPRP | 0.724
RRIRRRPPRLPRPRPRPCHVPRP | -0.238
RRIRRRPPRLPRPRPRPDGYPRP | -0.0109
RRIRIRPPRLPRPRPRPITNPRP | -0.176
RRIRERPPRLPRPRPRPAYDPRP | -0.394
RRIRMRPPRLPRPRPRPQQIPRP | 0.0607

Sequence | shrunken log2 fold change
RRIRLRPPRLPRPRPRPAMVPRP | 0.0527
RRIRARPPRLPRPRPRPNMHPRP | 0.0638
RRIRLRPPRLPRPRPRPTPRPRP | 0.763
RRIRSRPPRLPRPRPRPEASPRP | 0.715
RRIRLRPPRLPRPRPRPEHMPRP | -0.336
RRIRFRPPRLPRPRPRPTWMPRP | 0.611
RRIRARPPRLPRPRPRPPQHPRP | 0.655
RRIRQRPPRLPRPRPRPMVMPRP | 0.0852
RRIRPRPPRLPRPRPRPNSPPRP | -0.255
RRIRPRPPRLPRPRPRPHIHPRP | -0.82
RRIRCRPPRLPRPRPRPCATPRP | 0.16
RRIRSRPPRLPRPRPRPEARPRP | 0.292
RRIRVRPPRLPRPRPRPICLPRP | 0.0369
RRIRDRPPRLPRPRPRPHMSPRP | -0.00968
RRIRFRPPRLPRPRPRPKFKPRP | -0.238
RRIRRRPPRLPRPRPRPINQPRP | 0.0137
RRIRMRPPRLPRPRPRPYCIPRP | 0.0786
RRIRVRPPRLPRPRPRPAVDPRP | 0.192
RRIRWRPPRLPRPRPRPRKQPRP | -0.0611
RRIRARPPRLPRPRPRPNNKPRP | -0.29
RRIRKRPPRLPRPRPRPKSDPRP | -0.015
RRIRNRPPRLPRPRPRPFSVPRP | -0.678
RRIRERPPRLPRPRPRPPYSPRP | -0.102
RRIRYRPPRLPRPRPRPDVDPRP | -0.0562
RRIRERPPRLPRPRPRPQFVPRP | -0.312

Sequence | shrunken log2 fold change
RRIRMRPPRLPRPRPRPNDFPRP | 0.0282
RRIRWRPPRLPRPRPRPGQFPRP | 0.061
RRIRTRPPRLPRPRPRPPQTPRP | 0.457
RRIRHRPPRLPRPRPRPGTVPRP | -0.139
RRIRGRPPRLPRPRPRPANKPRP | 0.209
RRIRWRPPRLPRPRPRPAHRPRP | 0.49
RRIRSRPPRLPRPRPRPCIDPRP | -0.607
RRIRLRPPRLPRPRPRPALWPRP | 0.754
RRIRTRPPRLPRPRPRPDAQPRP | 0.193
RRIRKRPPRLPRPRPRPGTHPRP | 0.213
RRIRSRPPRLPRPRPRPEMLPRP | 0.536
RRIRWRPPRLPRPRPRPFMEPRP | -0.239
RRIRDRPPRLPRPRPRPDKHPRP | -0.0761
RRIRPRPPRLPRPRPRPQYCPRP | -0.106
RRIRSRPPRLPRPRPRPHLNPRP | -0.158
RRIRQRPPRLPRPRPRPQNFPRP | -0.0918
RRIRIRPPRLPRPRPRPYLCPRP | -0.0937
RRIRYRPPRLPRPRPRPHQCPRP | -0.0856
RRIRGRPPRLPRPRPRPCSPPRP | 0.0454
RRIRKRPPRLPRPRPRPVFWPRP | 0.666
RRIRMRPPRLPRPRPRPLPVPRP | 0.872
RRIRHRPPRLPRPRPRPSQTPRP | 0.067
RRIRMRPPRLPRPRPRPKYMPRP | 0.00659
RRIRDRPPRLPRPRPRPDWIPRP | 0.189
RRIRPRPPRLPRPRPRPFPIPRP | -0.371

Sequence | shrunken log2 fold change
RRIRPRPPRLPRPRPRPYSPPRP | -1.23
RRIRGRPPRLPRPRPRPKEQPRP | 0.0833
RRIRVRPPRLPRPRPRPAMFPRP | -0.0685
RRIRWRPPRLPRPRPRPNSEPRP | -0.071
RRIRARPPRLPRPRPRPTCDPRP | 0.534
RRIRARPPRLPRPRPRPTDAPRP | 0.607
RRIRARPPRLPRPRPRPDMRPRP | 0.737
RRIRGRPPRLPRPRPRPNNNPRP | -0.0957
RRIRTRPPRLPRPRPRPPEQPRP | 0.151
RRIRIRPPRLPRPRPRPTLAPRP | 0.236
RRIRQRPPRLPRPRPRPSDHPRP | -0.298
RRIRIRPPRLPRPRPRPRMKPRP | -0.0587
RRIRARPPRLPRPRPRPNFHPRP | 0.0254
RRIRQRPPRLPRPRPRPGIFPRP | 0.0804
RRIRFRPPRLPRPRPRPFYVPRP | -0.417
RRIRGRPPRLPRPRPRPIQSPRP | -0.0426
RRIRQRPPRLPRPRPRPAEYPRP | 0.0734
RRIRCRPPRLPRPRPRPIEAPRP | -0.108
RRIRPRPPRLPRPRPRPKFPPRP | 0.119
RRIRSRPPRLPRPRPRPIDEPRP | 0.0325
RRIRTRPPRLPRPRPRPNVSPRP | -0.0389
RRIRVRPPRLPRPRPRPSHMPRP | -0.585
RRIRKRPPRLPRPRPRPGQIPRP | 0.00502
RRIRKRPPRLPRPRPRPLKNPRP | 0.211
RRIRDRPPRLPRPRPRPWWGPRP | -0.00301

Sequence | shrunken log2 fold change
RRIRMRPPRLPRPRPRPVSNPRP | 0.499
RRIRHRPPRLPRPRPRPEYCPRP | -0.201
RRIRYRPPRLPRPRPRPKGGPRP | 0.0198
RRIRSRPPRLPRPRPRPQAQPRP | -0.121
RRIRCRPPRLPRPRPRPCLLPRP | -1.45
RRIRSRPPRLPRPRPRPRRFPRP | -0.0186
RRIRDRPPRLPRPRPRPYHSPRP | -0.198
RRIRPRPPRLPRPRPRPLVAPRP | 0.101
RRIRTRPPRLPRPRPRPQRLPRP | -0.223
RRIRRRPPRLPRPRPRPILIPRP | 0.118
RRIRYRPPRLPRPRPRPRQSPRP | -0.0113
RRIRTRPPRLPRPRPRPWGHPRP | -0.066
RRIRERPPRLPRPRPRPGAPPRP | 0.301
RRIRARPPRLPRPRPRPIGYPRP | -0.0969
RRIRGRPPRLPRPRPRPHFIPRP | -0.139
RRIRARPPRLPRPRPRPCHCPRP | 0.164
RRIRQRPPRLPRPRPRPVQFPRP | -0.0919
RRIRHRPPRLPRPRPRPQFFPRP | -0.619
RRIRQRPPRLPRPRPRPVVAPRP | 0.174
RRIRQRPPRLPRPRPRPIGAPRP | -0.0217
RRIRQRPPRLPRPRPRPWKTPRP | -0.0168
RRIRLRPPRLPRPRPRPGKQPRP | 0.0284
RRIRVRPPRLPRPRPRPARRPRP | 0.382
RRIRWRPPRLPRPRPRPWQMPRP | 0.0308
RRIRYRPPRLPRPRPRPDRSPRP | 0.00326
